Where a chain is given by its changes, count along the chain named. In names and notes the source's numbering stands.
T1: recombinant hu-CD96 (M1-M503-polyHis) (human, UniProt P40200 22-519)
T1 construct: also called hu-CD96-his
T1 sequence: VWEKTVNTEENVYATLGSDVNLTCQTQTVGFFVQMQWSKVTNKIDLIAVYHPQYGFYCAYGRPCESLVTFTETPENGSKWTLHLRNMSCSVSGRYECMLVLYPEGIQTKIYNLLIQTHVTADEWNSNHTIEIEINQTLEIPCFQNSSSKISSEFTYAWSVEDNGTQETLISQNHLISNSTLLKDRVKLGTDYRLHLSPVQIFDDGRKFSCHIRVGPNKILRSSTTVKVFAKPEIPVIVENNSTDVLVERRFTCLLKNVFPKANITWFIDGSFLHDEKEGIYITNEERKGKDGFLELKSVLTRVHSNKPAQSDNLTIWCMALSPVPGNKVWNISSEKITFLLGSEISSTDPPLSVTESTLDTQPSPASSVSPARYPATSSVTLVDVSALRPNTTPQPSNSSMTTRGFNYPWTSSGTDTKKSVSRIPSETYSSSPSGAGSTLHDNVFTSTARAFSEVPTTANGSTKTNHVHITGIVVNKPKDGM

T2: hu-CD96 isoform 1 on HEK293T cells (human, UniProt P40200 22-585)
T2 construct: Origene RC213845, transient expression; also called HEK293T-CD96 (iso1)
T2 sequence: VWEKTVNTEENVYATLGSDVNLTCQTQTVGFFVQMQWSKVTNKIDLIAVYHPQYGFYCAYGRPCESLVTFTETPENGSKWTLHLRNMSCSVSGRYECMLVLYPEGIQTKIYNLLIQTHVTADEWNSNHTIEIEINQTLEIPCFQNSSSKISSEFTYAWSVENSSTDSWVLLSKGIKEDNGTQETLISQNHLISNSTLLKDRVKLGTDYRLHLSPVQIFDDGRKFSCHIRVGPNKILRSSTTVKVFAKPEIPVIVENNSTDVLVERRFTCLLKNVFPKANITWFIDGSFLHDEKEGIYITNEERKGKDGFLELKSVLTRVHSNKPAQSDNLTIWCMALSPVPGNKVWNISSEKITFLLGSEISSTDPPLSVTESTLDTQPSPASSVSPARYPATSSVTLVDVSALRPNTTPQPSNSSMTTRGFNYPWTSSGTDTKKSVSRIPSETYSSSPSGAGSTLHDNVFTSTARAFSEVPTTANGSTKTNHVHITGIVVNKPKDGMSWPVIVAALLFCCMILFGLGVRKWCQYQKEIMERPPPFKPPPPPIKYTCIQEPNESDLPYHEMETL

B1: 9H4, purified hybridoma antibody (antibody, V domains shown)
VH: EVQLLETGGGLVKSGGSLKLSCAASGFTFSDYYMYWVRQTPEKRLEWVAAISDDGTYTYYPDSVKGRFTISRDNANNYLYLQMSSLKSEDTAIYYCAKAGSYDYFDVWGAGTTVTVSS
VL: DIVLTQSPASLAVSLGQRAIISCKASQSVTFADTGLMHWYQQKPGQQPKLLIYRASNLEVGVPTRFSGSGSGTDFTLNIHPVEEEDVATYYCQQSREYPWTFGGGTKLEIK
notes: murine hybridoma IgG
B2: 10G1 (clone 10G1.3G8), purified hybridoma antibody (antibody, V domains shown)
VH: QIQLVQSGPELKKPGETVKISCKASGYPFTTYGMSWVKQAPGKGLKWMGWINTDSGVPTYADDFKGRFAFSLETSANTAYLQINSLKNEDAATYFCARNIYYGWGNFDYWGQGTILTVSS
VL: DILMTQSPTTLSVTPGETVSLSCRASQDIYRNLHWYQQKSQGTPRLLIKHASDSISGIPSRFTGSGSGTDFTLSINSVKPEDEGIYYCLQGYSMPYTFGGGTKLEIK
notes: murine hybridoma IgG
B3: 7E5, purified hybridoma antibody (antibody, V domains shown)
VH: QVQLKESGPGLVAPSQSLSIICTVSGFSLTNYGIHWIRQPPGKGLEWLGIIWAGGSTNYNSALMSRLTISKDNSKSQVFLKMNSLQTNDTAIYYCARVSMMGFAYWGQGTLVTVSA
VL: QAVVTQESALTTSPGETVTLTCRSSTGAVTTSNYANWVQEKPDHLFTGLIGGTNNRAPGVPARFSGSLIGDKAALTITGAQTEDEAIYFCSLWYGSHWVFGGGTKLTVL
notes: murine hybridoma IgG
B4: mAb1.v7 IgG (humanized 12F8) (antibody, V domains shown)
VH: EVQLVQSGAEVKKPGASVKVSCKASGFTFTNNWMHWVRQAPGQGLEWIGMIHPNSGITNINEKFKNRVTMTTDTSTSTAYMELRSLRSEDTAVYYCRSDGTYEGYFDYWGQGTLVTVSS
VL: DIQLTQSPSSLSASVGDRVTITCKASQNVGTAIVWYQQKPGKAPKVLIYSASTRYTGVPSRFSGSGSGTDFTLTISSLQPEDFATYYCQQYSSSPLTFGQGTKVEIKG
notes: human IgG1 N297G
B5: mAb1.v7 Fab (Fab, V domains shown)
VH: B4 VH
VL: DIQLTQSPSSLSASVGDRVTITCKASQNVGTAIVWYQQKPGKAPKVLIYSASTRYTGVPSRFSGSGSGTDFTLTISSLQPEDFATYYCQQYSSSPLTFGQGTKVEIK
B6: mAb1.v7.2 Fab (Fab, V domains shown)
VH: B4 VH with M34R, P53F, T101V
VL: B5 VL
notes: also called M34R/P52aF/T97V
B7: mAb1.v7.48 Fab (Fab, V domains shown)
VH: B4 VH with N32R, P53H, T101V
VL: B5 VL
notes: also called N32R/P52aH/T97V
B8: mAb1.v7.70 Fab (Fab, V domains shown)
VH: B4 VH with N32R, P53A, T101V
VL: B5 VL
notes: also called N32R/P52aA/T97V
B9: mAb1.v7.9 Fab (Fab, V domains shown)
VH: B4 VH with M34R, P53M, T101V
VL: B5 VL
notes: also called M34R/P52aM/T97V
B10: mAb1.v7.16 Fab (Fab, V domains shown)
VH: B4 VH with M34R, T101V
VL: B5 VL
notes: also called M34R/T97V

What follows are binders tested against T1, recombinant hu-CD96 (M1-M503-polyHis) (assay: ELISA, blocks hu-CD96-his binding to coated CD155-hFc).
Experimental: CD96 binding of purified hybridoma antibodies: The hu-CD96 and cy-CD96 antigen binding ELISA was performed on the purified hybridoma antibodies. Briefly, 96-well MAXISORP® flat bottom plates (Thermo Fisher Scientific, Waltham, MA; Cat #439454) were coated overnight at 4° C. with 0.5 µg/mL of hu-CD96D1 D3-hFc and cynomolgus monkey CD96D1 D3-hFc in PBS. After removing the coating solution, unspecific binding was blocked by PBS containing 1% bovine serum albumin (blocking buffer) and incubation at room temperature for one hour. Plates were then washed three times with PBS and 0.05% TWEEN®-20 (wash buffer). Serial dilution of purified antibodies in PBS containing 0.5% BSA and 0.05% Tween 20 (ELISA buffer) was added to individual wells followed by incubation at room temperature for one hour with agitation. Plates were washed three times with wash buffer, then 100 µL/well of anti-mouse IgG-HRP (Thermo Fisher Scientific, Waltham, MA; Cat #626520) in ELISA buffer was added. […] Enzymatic color development was stopped with 50 µL/well of TMB stop solution (VWR/Avantor, Radnor, PA, USA; Cat #95059-200). Plates were analyzed with a SpectraMax i3X plate reader (Molecular Devices LLC, San Jose, CA, USA) at 450 nm.
CD155 receptor blocking of purified hybridoma antibodies: Human CD155 blocking ELISA was performed on purified hybridoma antibodies following the same protocol as described for CD96 (above), except that serial dilution of purified antibodies 50 µL/well (starting at 1 µM, 1:5 dilution) in assay buffer was added into the reaction.

Row | IC50 [nM] | Binder
1 | 2.23 | B1
2 | 2.59 | B2
3 | 2.15 | B3

What follows are binders tested against T2, hu-CD96 isoform 1 on HEK293T cells (assay: FACS, Ab 50 nM).
Experimental: Isoform 1 of hu-CD96 (Origene, catalog #RC213845) was transiently expressed in HEK293T cells following standard lipofectamine or Fugene transfection protocol. […] Cells were washed, and binding was detected by incubation with anti-mouse IgG-FITC (Biolegend, catalog #406001) for 20 minutes at 4° C. Cell binding was analyzed by flow cytometry with a CytoFLEX (Beckman Coulter). Binding curves were calculated as a percentage of cells positive for bound antibody.

Row | % positive [%] | Binder
4 | 57.8 | B1
5 | 56.1 | B2
6 | 52.1 | B3
7 | 61 | B4

These binders were tested against T3, hu-CD96 Fc (human, biotinylated in Table 16) (assay: SPR 25C, CD96-Fc on Protein A, Fab analyte).
T3 construct: also called biotinylated hu-CD96-Fc
Experimental: Briefly, hu-CD96 Fc and cy-CD96 Fc were diluted at 10 µg/mL in HBS-P buffer (0.01 M HEPES pH 7.4, 0.15 M NaCl, 0.005% Surfactant P20) and applied to the Protein A chip at 30 µL/min flow rate for 60 s in flow cell 2 (FC2). Then flow 3-fold serial dilutions of mAb1.v7 Fab variants in HBS-P buffer (0.01 M HEPES pH 7.4, 0.15 M NaCl, 0.005% surfactant P20) from (0.4 nM) to high (1000 nM) were injected (flow rate: 30 µL/min) at 25° C. to both flow cell 1 (FC1) and flow cell 2 (FC2). The sensorgram was recorded and subject to reference and buffer subtraction before evaluating by BIA- CORE® 8K Evaluation Software (version 1.1.1.7442). Association rates ($kon$) and dissociation rates ($koff$) were calculated using a simple one-to-one Langmuir binding model. The equilibrium dissociation constant (K_D) was calculated as the ratio of $koff/kon$, and the values determined for the mAb1.v7 and the 5 Fab variants are summarized in Table 10 (below).

Row | Kd [nM] | koff [s⁻¹] | kon [M⁻¹ s⁻¹] | Binder
8 | 44.6 | 0.000817 | 18300 | B5
9 | 0.67 | 1.06e-05 | 15800 | B6
10 | 0.795 | 1.26e-05 | 15900 | B7
11 | 1.73 | 2.74e-05 | 15900 | B8
12 | 5.05 | 7.02e-05 | 13900 | B9
13 | 0.38 | 2.81e-06 | 7380 | B10

Reference: US12365732 (23ANDME, dated 2025)
